We go through five molecules from article doi:10.1101/2023.06.13.544862 (bioRxiv, 2023).

Ends that are not written are not given here. Me3 = trimethyl-lysine; Me2 = dimethyl-lysine

The target of experiment [1] is JMJD3 JmjC domain labelled for microscale thermophoresis (UniProt O15054 1339-1502, labeled with Protein Labeling kit RED-NHS). The experiment can be described thus: MST.
The target in experiment [2] is GST-tagged EED, wild type (human, UniProt O75530 1-441). The experiment in a line: pull-down.
Sequence of GST-tagged EED, wild type (O75530 whole entry): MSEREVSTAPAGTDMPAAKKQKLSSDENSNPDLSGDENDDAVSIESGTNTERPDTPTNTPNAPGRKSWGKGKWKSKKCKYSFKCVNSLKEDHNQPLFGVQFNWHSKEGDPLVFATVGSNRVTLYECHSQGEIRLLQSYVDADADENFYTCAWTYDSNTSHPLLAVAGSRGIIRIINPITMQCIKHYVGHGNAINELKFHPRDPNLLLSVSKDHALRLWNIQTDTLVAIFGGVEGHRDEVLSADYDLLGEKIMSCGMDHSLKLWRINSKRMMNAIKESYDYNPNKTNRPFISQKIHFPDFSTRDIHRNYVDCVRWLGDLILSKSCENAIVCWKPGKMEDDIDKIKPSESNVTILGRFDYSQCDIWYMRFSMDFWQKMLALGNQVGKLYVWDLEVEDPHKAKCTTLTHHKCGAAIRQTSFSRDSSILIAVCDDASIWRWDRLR

Sequence of JMJD3 JmjC domain labelled for microscale thermophoresis (O15054 1339-1502): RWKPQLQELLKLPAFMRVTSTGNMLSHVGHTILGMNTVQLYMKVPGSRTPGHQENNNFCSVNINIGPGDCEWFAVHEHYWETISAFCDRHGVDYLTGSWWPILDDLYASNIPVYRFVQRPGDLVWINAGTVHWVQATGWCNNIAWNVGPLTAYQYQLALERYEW

Broadly, the Kd is a measure of binding affinity in units of concentration. On to NARRK(Me)AAP (peptide, UniProt Q9Y3C1 25-32, looked up, also: biotin) [NOP16 aa 25-32 peptide, mono-methylated K29], for which the equilibrium dissociation constant (Kd) in experiment [1] is 347 ± 224 µM.

B1: 6xHis-tagged NOP16 (natural protein, human, UniProt Q9Y3C1 1-178, looked up)
chain: MPKAKGKTRRQKFGYSVNRKRLNRNARRKAAPRIECSHIRHAWDHAKSVRQNLAEMGLAVDPNRAVPLRKRKVKAMEVDIEERPKELVRKPYVLNDLEAEASLPEKKGNTLSRDLIDYVRYMVENHGEDYKAMARDEKNYYQDTPKQIRSKINVYKRFYPAEWQDFLDSLQKRKMEVE
On to B1, for which the binding result in experiment [2] is “binds”.

For the molecule NARRK(Me3)AAP (peptide, UniProt Q9Y3C1 25-32, looked up, also: biotin) [NOP16 aa 25-32 peptide, tri-methylated K29], the affinity in experiment [1], expressed as Kd, was 32.1 ± 27.4 µM.

On to NARRKAAP (peptide, UniProt Q9Y3C1 25-32, looked up, also: biotin) [NOP16 aa 25-32 peptide, unmethylated K29], for which the Kd in experiment [1] stood at 103 ± 65.2 µM.

In experiment [1], NARRK(Me2)AAP (peptide, UniProt Q9Y3C1 25-32, looked up, also: biotin) [NOP16 aa 25-32 peptide, di-methylated K29] returned a Kd of 306 ± 101 µM.
